Assay results taken from the supplement of paper PMC5998384.

What was measured:
[1] = test system: HeLa Kyoto; assay: solubility in G1/S (NP-40 vs SDS abundance) (log2 ratio); higher = more soluble; details: cell cycle stage: G1/S
[2] = test system: HeLa Kyoto; assay: melting temperature (median over replicates), in situ; higher = more thermally stable
[3] = test system: HeLa Kyoto; assay: solubility change mitosis vs G1/S (difference of NP-40 vs SDS log2 ratios) (log2 ratio difference); higher = more soluble in mitosis
[4] = test system: HeLa Kyoto; assay: thermal stability score vs G1/S (z-score of summed log2 fold changes over temperatures); higher = more thermally stable than in G1/S
[5] = cell cycle stage: early G1 (4.5 h after nocodazole release)
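Wherever melting temperature (median over replicates), in situ is given: HeLa Kyoto cells synchronized by double thymidine or nocodazole block, proteins quantified by TMT10plex mass spectrometry, three independent biological replicates.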
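Wherever solubility change mitosis vs G1/S (difference of NP-40 vs SDS log2 ratios) is given: synchronized HeLa Kyoto cells (double thymidine block for G1/S, nocodazole release for mitosis), protein amounts in NP-40 versus SDS lysates quantified by mass spectrometry, three biological replicates.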
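Wherever solubility in G1/S (NP-40 vs SDS abundance) is given: HeLa Kyoto cells arrested at G1/S by double thymidine block, proteins quantified by TMT10plex mass spectrometry in mild NP-40 versus SDS extracts, three biological replicates.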
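Wherever thermal stability score vs G1/S (z-score of summed log2 fold changes over temperatures) is given: synchronized HeLa Kyoto cells, proteins quantified by TMT10plex mass spectrometry, three biological replicates, mitosis taken 0.5 h after nocodazole release, G1/S directly after double thymidine block.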

Row | Sequence | solubility in G1/S (log2) [1] | melting temperature ([2]; cell cycle stage: G1/S) | melting temperature ([2]; cell cycle stage: mitosis) | solubility change mitosis (log2) [3] | thermal stability score [4, 5] | thermal stability score ([4]; cell cycle stage: mitosis)
1 | MAAAQEADGARSAVVAAGGGSSGQVTSNGSIGRDPPAETQPQNPPAQPAPNAWQVIKGVLFRIFIIWAISSWFRRGPAPQDQAGPGGAPRVASRNLFPKDTLMNLHVYISEHEHFTDFNATSALFWEQHDLVYGDWTSGENSDGCYEHFAELDIPQSVQQNGSIYIHVYFTKSGFHPDPRQKALYRRLATVHMSRMINKYKRRRFQKTKNLLTGETEADPEMIKRAEDYGPVEVISHWHPNITINIVDDHTPWVKGSVPPPLDQYVKFDAVSGDYYPIIYFNDYWNLQKDYYPINESLASLPLRVSFCPLSLWRWQLYAAQSTKSPWNFLGDELYEQSDEEQDSVKVALLETNPYLLALTIIVSIVHSVFEFLAFKNDIQFWNSRQSLEGLSVRSVFFGVFQSFVVLLYILDNETNFVVQVSVFIGVLIDLWKITKVMDVRLDREHRVAGIFPRLSFKDKSTYIESSTKVYDDMAFRYLSWILFPLLGCYAVYSLLYLEHKGWYSWVLSMLYGFLLTFGFITMTPQLFINYKLKSVAHLPWRMLTYKALNTFIDDLFAFVIKMPVMYRIGCLRDDVVFFIYLYQRWIYRVDPTRVNEFGMSGEDPTAAAPVAEVPTAAGALTPTPAPTTTTATREEASTSLPTKPTQGASSASEPQEAPPKPAEDKKKD [CLPTM1] | -0.0403 | 53.4 °C | 53.8 °C | -0.142 | 3.21 | 0.298
2 | MAAARPSLGRVLPGSSVLFLCDMQEKFRHNIAYFPQIVSVAARMLKVARLLEVPVMLTEQYPQGLGPTVPELGTEGLRPLAKTCFSMVPALQQELDSRPQLRSVLLCGIEAQACILNTTLDLLDRGLQVHVVVDACSSRSQVDRLVALARMRQSGAFLSTSEGLILQLVGDAVHPQFKEIQKLIKEPAPDSGLLGLFQGQNSLLH [ISOC2] | 0.188 | 55.1 °C | 54.9 °C | -0.173 | 1.82 | -1.19
3 | MAAASGYTDLREKLKSMTSRDNYKAGSREAAAAAAAAVAAAAAAAAAAEPYPVSGAKRKYQEDSDPERSDYEEQQLQKEEEARKVKSGIRQMRLFSQDECAKIEARIDEVVSRAEKGLYNEHTVDRAPLRNKYFFGEGYTYGAQLQKRGPGQERLYPPGDVDEIPEWVHQLVIQKLVEHRVIPEGFVNSAVINDYQPGGCIVSHVDPIHIFERPIVSVSFFSDSALCFGCKFQFKPIRVSEPVLSLPVRRGSVTVLSGYAADEITHCIRPQDIKERRAVIILRKTRLDAPRLETKSLSSSVLPPSYASDRLSGNNRDPALKPKRSHRKADPDAAHRPRILEMDKEENRRSVLLPTHRRRGSFSSENYWRKSYESSEDCSEAAGSPARKVKMRRH [ALKBH5] | -0.0973 | 51 °C | 51.4 °C | 0.0485 | 3.65 | -0.482
4 | MAAASVTPPGSLELLQPGFSKTLLGTKLEAKYLCSACRNVLRRPFQAQCGHRYCSFCLASILSSGPQNCAACVHEGIYEEGISILESSSAFPDNAARREVESLPAVCPSDGCTWKGTLKEYESCHEGRCPLMLTECPACKGLVRLGEKERHLEHECPERSLSCRHCRAPCCGADVKAHHEVCPKFPLTCDGCGKKKIPREKFQDHVKTCGKCRVPCRFHAIGCLETVEGEKQQEHEVQWLREHLAMLLSSVLEAKPLLGDQSHAGSELLQRCESLEKKTATFENIVCVLNREVERVAMTAEACSRQHRLDQDKIEALSSKVQQLERSIGLKDLAMADLEQKVLEMEASTYDGVFIWKISDFARKRQEAVAGRIPAIFSPAFYTSRYGYKMCLRIYLNGDGTGRGTHLSLFFVVMKGPNDALLRWPFNQKVTLMLLDQNNREHVIDAFRPDVTSSSFQRPVNDMNIASGCPLFCPVSKMEAKNSYVRDDAIFIKAIVDLTGL [TRAF2] | 0.0627 | 52.5 °C | 52.2 °C | -0.084 | -0.77 | -1.17
5 | MAAATADPGAGNPQPGDSSGGGAGGGLPSPGEQELSRRLQRLYPAVNQQETPLPRSWSPKDKYNYIGLSQGNLRVHYKGHGKNHKDAASVRATHPIPAACGIYYFEVKIVSKGRDGYMGIGLSAQGVNMNRLPGWDKHSYGYHGDDGHSFCSSGTGQPYGPTFTTGDVIGCCVNLINGTCFYTKNGHSLGIAFTDLPANLYPTVGLQTPGEIVDANFGQQPFLFDIEDYMREWRAKVQGTVHCFPISARLGEWQAVLQNMVSSYLVHHGYCATATAFARMTETPIQEEQASIKNRQKIQKLVLEGRVGEAIETTQRFYPGLLEHNPNLLFMLKCRQFVEMVNGTDSEVRSLSSRSPKSQDSYPGSPSLSPRHGPSSSHMHNTGADSPSCSNGVASTKSKQNHSKYPAPSSSSSSSSSSSSSSPSSVNYSESNSTDSTKSQHHSSTSNQETSDSEMEMEAEHYPNGVLGSMSTRIVNGAYKHEDLQTDESSMDDRHPRRQLCGGNQAATERIILFGRELQALSEQLGREYGKNLAHTEMLQDAFSLLAYSDPWSCPVGQQLDPIQREPVCAALNSAILESQNLPKQPPLMLALGQASECLRLMARAGLGSCSFARVDDYLH [RANBP10] | 0.151 | 51.4 °C | 51.1 °C | -0.193 | 0.428 | 0.506
6 | MAAAVAAAGAGEPQSPDELLPKGDAEKPEEELEEDDDEELDETLSERLWGLTEMFPERVRSAAGATFDLSLFVAQKMYRFSRAALWIGTTSFMILVLPVVFETEKLQMEQQQQLQQRQILLGPNTGLSGGMPGALPSLPGKI [TOMM22] | -0.782 | 53.4 °C | 52.8 °C | 0.211 | -3.84 | -4.82
7 | MAAAVAAAGRLGWLFAALCLGNAAGEAAPGPRVLGFCLEEDGAAGAGWVRGGAARDTPDATFLLRLFGPGFANSSWSWVAPEGAGCREEAASPAGEWRALLRLRLRAEAVRPHSALLAVRVEPGGGAAEEAAPPWALGLGAAGLLALAALARGLQLSALALAPAEVQVLRESGSEAERAAARRLEPARRWAGCALGALLLLASLAQAALAVLLYRAAGQRAVPAVLGSAGLVFLVGEVVPAAVSGRWTLALAPRALGLSRLAVLLTLPVALPVGQLLELAARPGRLRERVLELARGGGDPYSDLSKGVLRCRTVEDVLTPLEDCFMLDASTVLDFGVLASIMQSGHTRIPVYEEERSNIVDMLYLKDLAFVDPEDCTPLSTITRFYNHPLHFVFNDTKLDAVLEEFKRGKSHLAIVQKVNNEGEGDPFYEVLGLVTLEDVIEEIIRSEILDESEDYRDTVVKRKPASLMAPLKRKEEFSLFKVSDDEYKVTISPQLLLATQRFLSREVDVFSPLRISEKVLLHLLKHPSVNQEVRFDESNRLATHHYLYQRSQPVDYFILILQGRVEVEIGKEGLKFENGAFTYYGVSALTVPSSVHQSPVSSLQPIRHDLQPDPGDGTHSSAYCPDYTVRALSDLQLIKVTRLQYLNALLATRAQNLPQSPENTDLQVIPGSQTRLLGEKTTTAAGSSHSRPGVPVEGSPGRNPGV [CNNM3] | 0.0405 | 52.3 °C | 51.3 °C | -0.00872 | -0.222 | -0.298
8 | MAAAVAAAPGALGSLHAGGARLVAACSAWLCPGLRLPGSLAGRRAGPAIWAQGWVPAAGGPAPKRGYSSEMKTEDELRVRHLEEENRGIVVLGINRAYGKNSLSKNLIKMLSKAVDALKSDKKVRTIIIRSEVPGIFCAGADLKERAKMSSSEVGPFVSKIRAVINDIANLPVPTIAAIDGLALGGGLELALACDIRVAASSAKMGLVETKLAIIPGGGGTQRLPRAIGMSLAKELIFSARVLDGKEAKAVGLISHVLEQNQEGDAAYRKALDLAREFLPQGPVAMRVAKLAINQGMEVDLVTGLAIEEACYAQTIPTKDRLEGLLAFKEKRPPRYKGE [AUH] | 0.261 | 51.6 °C | 51.6 °C | -0.0164 | 0.266 | 1.09
9 | MAACTARRALAVGSRWWSRSLTGARWPRPLCAAAGAGAFSPASTTTTRRHLSSRNRPEGKVLETVGVFEVPKQNGKYETGQLFLHSIFGYRGVVLFPWQARLYDRDVASAAPEKAENPAGHGSKEVKGKTHTYYQVLIDARDCPHISQRSQTEAVTFLANHDDSRALYAIPGLDYVSHEDILPYTSTDQVPIQHELFERFLLYDQTKAPPFVARETLRAWQEKNHPWLELSDVHRETTENIRVTVIPFYMGMREAQNSHVYWWRYCIRLENLDSDVVQLRERHWRIFSLSGTLETVRGRGVVGREPVLSKEQPAFQYSSHVSLQASSGHMWGTFRFERPDGSHFDVRIPPFSLESNKDEKTPPSGLHW [POLDIP2] | 0.07 | 50.9 °C | 51.4 °C | -0.0327 | 0.146 | -0.814
10 | MAAEDELQLPRLPELFETGRQLLDEVEVATEPAGSRIVQEKVFKGLDLLEKAAEMLSQLDLFSRNEDLEEIASTDLKYLLVPAFQGALTMKQVNPSKRLDHLQRAREHFINYLTQCHCYHVAEFELPKTMNNSAENHTANSSMAYPSLVAMASQRQAKIQRYKQKKELEHRLSAMKSAVESGQADDERVREYYLLHLQRWIDISLEEIESIDQEIKILRERDSSREASTSNSSRQERPPVKPFILTRNMAQAKVFGAGYPSLPTMTVSDWYEQHRKYGALPDQGIAKAAPEEFRKAAQQQEEQEEKEEEDDEQTLHRAREWDDWKDTHPRGYGNRQNMG [IGBP1] | 0.454 | 50.7 °C | 51.4 °C | 0.103 | -0.476 | -0.0586
11 | MAAEIHSRPQSSRPVLLSKIEGHQDAVTAALLIPKEDGVITASEDRTIRVWLKRDSGQYWPSIYHTMASPCSAMAYHHDSRRIFVGQDNGAVMEFHVSEDFNKMNFIKTYPAHQNRVSAIIFSLATEWVISTGHDKCVSWMCTRSGNMLGRHFFTSWASCLQYDFDTQYAFVGDYSGQITLLKLEQNTCSVITTLKGHEGSVACLWWDPIQRLLFSGASDNSIIMWDIGGRKGRTLLLQGHHDKVQSLCYLQLTRQLVSCSSDGGIAVWNMDVSREEAPQWLESDSCQKCEQPFFWNIKQMWDTKTLGLRQHHCRKCGQAVCGKCSSKRSSYPVMGFEFQVRVCDSCYDSIKDEDRTSLATFHEGKHNISHMSMDIARGLMVTCGTDRIVKIWDMTPVVGCSLATGFSPH [WDFY1] | -0.607 | 54.2 °C | 54.5 °C | -0.0745 | 1.13 | -1.04
12 | MAAERGAGQQQSQEMMEVDRRVESEESGDEEGKKHSSGIVADLSEQSLKDGEERGEEDPEEEHELPVDMETINLDRDAEDVDLNHYRIGKIEGFEVLKKVKTLCLRQNLIKCIENLEELQSLRELDLYDNQIKKIENLEALTELEILDISFNLLRNIEGVDKLTRLKKLFLVNNKISKIENLSNLHQLQMLELGSNRIRAIENIDTLTNLESLFLGKNKITKLQNLDALTNLTVLSMQSNRLTKIEGLQNLVNLRELYLSHNGIEVIEGLENNNKLTMLDIASNRIKKIENISHLTELQEFWMNDNLLESWSDLDELKGARSLETVYLERNPLQKDPQYRRKVMLALPSVRQIDATFVRF [PPP1R7] | 0.332 | 52.7 °C | 52.8 °C | 0.033 | -1.16 | -2.37
13 | MAAERQEALREFVAVTGAEEDRARFFLESAGWDLQIALASFYEDGGDEDIVTISQATPSSVSRGTAPSDNRVTSFRDLIHDQDEDEEEEEGQRFYAGGSERSGQQIVGPPRKKSPNELVDDLFKGAKEHGAVAVERVTKSPGETSKPRPFAGGGYRLGAAPEEESAYVAGEKRQHSSQDVHVVLKLWKSGFSLDNGELRSYQDPSNAQFLESIRRGEVPAELRRLAHGGQVNLDMEDHRDEDFVKPKGAFKAFTGEGQKLGSTAPQVLSTSSPAQQAENEAKASSSILIDESEPTTNIQIRLADGGRLVQKFNHSHRISDIRLFIVDARPAMAATSFILMTTFPNKELADESQTLKEANLLNAVIVQRLT [NSFL1C] | 0.384 | 51.7 °C | 52 °C | 0.0342 | -1.97 | 1.13
